Experimental data published in patent US20250263490A1 (VIB VZW, published 2025).

B1: anti-CI-M6PR VHH5 (VHH)
VHH: QVQLQESGGGLVQAGGSLKLSCAAAGRTFSRLAMGWFRQAPGKEREFVAAISENGDSIHYSDSVKGRFAVSRDNAKNTVYLQMNSLKPEDTAIYYCAADRAAYYCSGSGCYPSRAPAAASYDYWGQGTQVTVSS
notes: His6-tagged; made in Pichia pastoris, later also in E. coli WK6
B2: anti-CI-M6PR VHH1 (VHH)
VHH: QVQLQESGGGLVQPGGSLRLSCVASGFTFDRYWMNWLRQIPGKEIEWVSTINTGGTGTYYDDSVKGRFSISRDDAKNTLYLTMNSLKTEDTAVYYCARGATYYRGNSAIRGQGTQVTVSS
notes: as for B1
B3: anti-CI-M6PR VHH7 (VHH)
VHH: QVQLQESGGGLVQPGGSLRLSCAASGIIFSDNRMDWYRQAPGKQREWVATLASYGWKTYADSVKGRFTISRDNTKNTVYLRMNSLKPEDTAVYYCKASSPVLNDIWGQGTQVTVSS
notes: His6-tagged (Pichia pastoris)
B4: anti-CI-M6PR VHH6 (VHH)
VHH: QVQLQESGGGLVQAGGSLRLSCAVSGSISSIGGMGWFRQAPGKQREFVAVILNNSGMTSYADSVKGRFTISRGNSKNTMYLQMNSLKPEDTAVYYCNYSGYWGQGTQVTVSS
notes: His6-tagged; made in E. coli
B5: anti-CI-M6PR VHH3 (VHH)
VHH: QVQLQESGGGLVQPGGSLRLSCAAFGLNFKNFDMIWFRQAPGEERDIVAAISSSSSTIWYEDSVKGRFTISRDNAKNTVYLQMNSLKPEDTAVYYCAAALTSWRRPDYWGQGTQVTVSS
notes: His6-tagged; made in Pichia pastoris
B6: anti-CI-M6PR VHH8 (VHH)
VHH: QVQLQESGGGLVQAGGSLRLSCEASGRTFNTYNWGWFRQAPGKEREFVAAIRWSSSKTSYADSVKGRFTISRDNAKNTIYLQMNSLKPEDTAVYYCAASIVDFTTNPSHFGSWGQGTQVTVSS
notes: His6-tagged (Pichia pastoris)
B7: anti-CI-M6PR VHH4 (VHH)
VHH: QVQLQESGGGLVQAGGSLRLSCAASGRTFSNYVMGWFRQAPGKEREFVGSISQGGKMTYYPDSVKGRFTISRDNAKNTMYLQMDGLKPEDTAVYYCAVSRGYPMVRVSEVDYWGQGTQVTVSS
notes: as for B5
B8: anti-CI-M6PR VHH10 (VHH)
VHH: QVQLQESGGGSVQAGGSLRLSCAPAGRTFSRIRMGWFRQAPGKEREFVAAISSGGLSYYADSMKGRFTISRDNAKNTVLLQMNSLEPDDTAVYYCAAVLNDYIDDYVARNPTLYDYWGQGTQVTVSS
notes: as for B5
B9: anti-CI-M6PR VHH9 (VHH)
VHH: QVQLQESGGGLVQAGGSLRLSCAASGTILSIKTMGWYRQAPGKEREWVATITSSSIPMYADSVKGRFTISRDDAKNTVYLQMNSLKPEDTGVYYCNAPWTDYWGQGTQVTVSS
notes: as for B5

What was measured:
[1] = target: T1, recombinant human domain 1-3His6 of the cation-independent mannose-6-phosphate receptor (human, UniProt P11717 41-467); experiment: BLI exp 1, dissoc pH 5
T1 construct: Biotinylated (NHS-PEG4-biotin) for BLI; Glycosylated; also called hDom1-3His6; hCI-M6PRD1-D3
Procedure: (§1) For each of the 11 anti-CI-M6PR VHHs, a biolayer interferometry (BLI) experiment was performed in which the hDom₁₋₃His₆ was biotinylated and coupled to streptavidin biosensor tips. Afterwards, the tips were incubated with serially diluted VHHs during the association phase and dissociation was performed at pH 7.4. Similarly, dissociation was performed at pH 7.0, pH 6.0 and pH 5.0 as well after regeneration of the biosensor tips. […] The anti-CI-M6PR antibody (clone 2G11) and GBP were used as positive and negative controls, respectively.
(§2) Analysis of the binding kinetics was performed using an Octet Red96 (FortéBio) device with Streptavidin SA Biosensor tips (VWR 733-2145). Therefore, 1 mL of human domain₁₋₃His₆ (0.5 mg/mL in 50 mM MES, 150 mM NaCl, pH 6.5) was incubated at room temperature for 30 minutes with EZ-Link™ NHS-PEG4-Biotin (1 mg) (Thermo Fischer A39259) and NaHCO₃ (100 mM). Biotinylated human domain₁₋₃His₆ was purified using a Zeba spin desalting Column™ (7K MWCO, 2 mL, Thermo Fischer 89890) and 1 μg/mL was used for immobilization on the Streptavidin SA Biosensor tips. The loaded tips were dipped into a particular anti-CI-M6PR VHH solution, serially diluted in kinetics buffer (0.2M NaH₂PO₄, 0.1M Na⁺ citrate, 0.01% BSA, 0.002% Tween20, pH 7.4). This was followed by dissociation of the particular anti-CI-M6PR VHH in kinetics buffer of pH 7.4, followed by regeneration in Glycine (10 mM, pH 3) and neutralisation. Same cycle was repeated but the dissociation was performed at pH 7.0, 6.0, 5.0, 4.5 and 4.0. A reference well and reference sensors were subtracted from ligand sensors afterwards and Savitsky-Golay filtering was applied on the data. Fitting of the data was performed using a 1:1 model, grouped per pH of dissociation.

[2] = target: T1, recombinant human domain 1-3His6 of the …; experiment: BLI exp 1, dissoc pH 6
Procedure: as §1, §2

[3] = target: T1, recombinant human domain 1-3His6 of the …; experiment: BLI exp 2, dissoc pH 5
Procedure: as §1
(§3) Analysis of the binding kinetics was performed using an Octet Red96 (FortéBio) device with Streptavidin SA Biosensor tips (VWR, 733-2145). To this end, 1 mL of hCI-M6PR_D1-D3 (0.5 mg/mL in 50 mM MES, 150 mM NaCl, pH 6.5) was incubated at room temperature for 30 minutes with a two-fold molar excesses of EZ-Link™ NHS-PEG₄-Biotin (Thermo Fischer, A39259) and NaHCO₃ (100 mM, pH 8.3). Biotinylated hCIMPR_D1-D3 was purified using a Zeba spin desalting column (Thermo Fischer, 89890) and protein concentration was calculated by measuring the absorbance at 280 nm (extinction coefficient 50320 M¹ cm⁻¹). Two-fold biotin-labelled antigen was loaded on the tips (2.5 μg/mL) and subsequently dipped into a particular anti-CI-M6PR VHH-containing solution (ranging from 0-100 nM). Serial VHH dilutions were made in kinetics buffer (0.2 M Na₂HPO₄, 0.1 M Na⁺ citrate, 0.01% BSA, 0.002% Tween20, pH 7.4). After association (100 sec), dissociation was conducted (500 sec) for each anti-CI-M6PR VHH in the kinetics buffer, followed by biosensor regeneration in glycine (10 mM, pH 3) and neutralisation. The same cycle was repeated with dissociation performed in kinetics buffer of pH 7.0, 6.5, 6.0, 5.5, and 5.0.
(§4) A reference well and reference sensors were subtracted from ligand sensors afterwards and Savitsky-Golay filtering was applied on the data. Fitting of the data was performed using a 1:1 model, grouped per dissociation pH.

[4] = target: T1, recombinant human domain 1-3His6 of the …; experiment: BLI exp 2, dissoc pH 6
Procedure: as §1, §3, §4

[5] = target: T1, recombinant human domain 1-3His6 of the …; experiment: BLI exp 2, dissoc pH 7
[6] = target: T1, recombinant human domain 1-3His6 of the …; experiment: BLI at pH 7.4, 1st of 2 repeats
Procedure: as §1, §2

[7] = target: T1, recombinant human domain 1-3His6 of the …; experiment: ELISA on coated antigen, 1st of 2 repeats
Procedure: FIGS. 4A-4B. Affinity of anti-CI-M6PR VHHs for recombinant human CI-M6PR Domain 1-3His₆ determined by ELISA. A & B. Measurements for each of the 11 anti-CI-M6PR VHHs in serial dilution binding to the coated human CI-M6PR Domain 1-3His₆ antigen. Detection was performed using an anti-VHH antibody coupled to HRP, and measured as the absorbance of the TMB substrate at 450 nm, correlating to the amount of bound VHH as plotted at the Y-axis. The Log₁₀ concentrations of the serially diluted VHHs were plotted at the X-axis. […] A & B represent replicates but using a different concentration of human CI-M6PR Domain 1-3His₆ (in (FIG. 4A): 0-0.75 μM and in (FIG. 4B): 0-1 μM).
We evaluated the affinity of the VHHs against the hDom₁₋₃His₆ using ELISA. Coated hDom₁₋₃His₆ was incubated with serially diluted VHH that was afterwards detected using an anti-VHH antibody, coupled to HRP.

Row | Binder | Kd [1] [nM] | koff [1] [s⁻¹] | kon [1] [M⁻¹ s⁻¹] | Kd [2] [nM] | koff [2] [s⁻¹] | kon [2] [M⁻¹ s⁻¹] | koff [3] [s⁻¹] | kon [3] [M⁻¹ s⁻¹] | koff [4] [s⁻¹] | kon [4] [M⁻¹ s⁻¹] | koff [5] [s⁻¹] | kon [5] [M⁻¹ s⁻¹] | Kd [6] [nM] | koff [6] [s⁻¹] | kon [6] [M⁻¹ s⁻¹] | EC50 [7] [nM]
1 | B1 | 5.76 | 0.00861 | 1.5e+06 | 0.0111 | 1.52e-05 | 1.38e+06 | 0.033 | 2.33e+08 | 0.00029 | 1.7e+06 | 0.00019 | 1.5e+06 | 0.0903 | 0.000124 | 1.37e+06 | 0.0816
2 | B2 | 24.7 | ~0.0988 | 4e+06 | 12.7 | ~0.0165 | 1.3e+06 | 0.072 | – | 0.021 | 560000 | 0.0021 | 1.5e+06 | 7.44 | ~0.00606 | 814000 | 1.78
3 | B3 | 11.7 | 0.0542 | 4.62e+06 | 8.75 | 0.0321 | 3.67e+06 | 0.055 | 55000 | 0.028 | 40000 | 0.013 | 130000 | 10.8 | 0.00999 | 924000 | 0.0109
4 | B4 | 8.5 | 0.0156 | 1.84e+06 | 1.56 | 0.00242 | 1.55e+06 | 0.0156 | 330000 | 0.00227 | 718000 | 0.00242 | 392000 | 3.35 | 0.00352 | 1.05e+06 | 84.2
5 | B5 | 1.36 | 0.00149 | 1.1e+06 | 0.27 | 0.000851 | 3.16e+06 | 0.000369 | 55600 | 0.000499 | 40600 | 0.000844 | 53000 | ≤ 0.000117 | ≤ 1e-07 | 853000 | 0.0379
6 | B6 | 109 | 0.0328 | 302000 | 12.7 | 0.00293 | 231000 | 0.084 | 2.4e+06 | 0.0012 | 1.3e+08 | 0.000976 | 404000 | 1.69 | 0.000787 | 465000 | 0.11
7 | B7 | 10 | 0.00729 | 729000 | 3.18 | 0.00101 | 316000 | 0.00729 | 729000 | 0.00126 | 572000 | 0.00101 | 316000 | – | – | – | –
8 | B8 | – | 0.0106 | 91100 | – | 0.00205 | 39100 | 0.0106 | 91100 | 0.00205 | 39100 | 0.00148 | 99300 | 46.3 | 0.00177 | 38100 | 0.0657
9 | B9 | 84.1 | 0.0496 | 590000 | 0.674 | 0.00122 | 1.81e+06 | 0.0496 | 590000 | 0.000122 | 615000 | 0.00051 | 379000 | 0.282 | 0.000444 | 1.57e+06 | 0.00642
